The record followed here is paper PMC6053351.

Experiment [1] deals with RBBP4 Glu126Ala/Asn128Ala/Glu179Ala (UniProt Q09028). Put plainly: ITC; AEBP2 ZF1–3 titrated into RBBP4; one-site binding model, Origin 7. In general terms: In ITC the heat of successive injections is recorded.
For experiment [2], the target named is RBBP4, full-length, wild type (UniProt Q09028). Described as above.
Sequence of RBBP4, full-length, wild type (Q09028 whole entry): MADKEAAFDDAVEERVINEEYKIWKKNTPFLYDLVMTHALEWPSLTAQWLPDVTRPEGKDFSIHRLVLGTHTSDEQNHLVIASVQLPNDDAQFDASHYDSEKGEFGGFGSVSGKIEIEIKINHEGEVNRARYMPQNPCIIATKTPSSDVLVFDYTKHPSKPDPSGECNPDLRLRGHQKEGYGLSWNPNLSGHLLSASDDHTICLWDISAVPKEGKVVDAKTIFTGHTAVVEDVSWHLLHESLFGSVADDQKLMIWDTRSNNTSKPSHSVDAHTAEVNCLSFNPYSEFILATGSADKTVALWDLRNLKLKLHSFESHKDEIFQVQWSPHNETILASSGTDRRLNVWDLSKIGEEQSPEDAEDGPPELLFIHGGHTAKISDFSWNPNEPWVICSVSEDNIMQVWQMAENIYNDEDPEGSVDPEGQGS

Sequence of RBBP4 Glu126Ala/Asn128Ala/Glu179Ala (Q09028 whole entry E126A/N128A/E179A): as the sequence (Q09028 whole entry) above, with E126A, N128A, E179A counted along it

Usually Kd stands for the concentration at which binding is half-saturated. Read a high Kd as weaker binding. Take “AEBP2 ZF1–3 (three zinc fingers, residues Asn258–Gln357) (domain or fragment)”: the figures for the Kd in experiment [1] and in experiment [2] were 16 µM and 10.1 µM, respectively.
